Drawing on PMC7959386 (2021), this text covers Kd and koff for two molecules.

In test [1] the target is T1, SARS-CoV-2 Spike receptor-binding domain (residues 330-541) (SARS-CoV-2, UniProt P0DTC2 330-541). Put plainly: BLI. A general note: BLI is a label-free optical method that tracks binding on a fibre tip over time.
For test [2], the target named is T1, SARS-CoV-2 Spike receptor-binding …. The test is described as follows: BLI. The source holds these as a separate data set.

B1: MR17 (synthetic nanobody, sybody) (VHH)
VHH: QVQLVESGGGLVQAGGSLRLSCAASGFPVEVWRMEWYRQAPGKEREGVAAIESYGHGTRYADSVKGRFTISRDNAKNTVYLQMNSLKPEDTAVYYCNVKDDGQLAYHYDYWGQGTQVTVSA
Broadly, the Kd is the free concentration of one partner at which half of the binding sites on the other are occupied at equilibrium, for simple one-to-one binding. Read a high Kd as weaker binding. The koff is the first-order rate constant of dissociation. Low readings indicate slow dissociation, high ones fast dissociation. In turn, B1 displayed a Kd in test [1] of 83.7 nM. In test [2], this molecule gave a koff of 0.0097 s⁻¹.

B2: MR6 (synthetic nanobody, sybody) (VHH)
VHH: QVQLVESGGGLVQAGGSLRLSCAASGFPVEDTWMEWYRQAPGKEREWVAAITSWGFKTYYADSVKGRFTISRDNAKNTVYLQMNSLKPEDTAVYYCNVKDEGDTSASYDYWGQGTQVTVSS
As for B2, the off-rate (koff) in test [2] worked out at 0.0072 s⁻¹.
